Data taken from patent USRE47150 (Bayer, dated 2018).

How the values were obtained:
[1] = target: T1, human tissue factor pathway inhibitor (TFPI) (human, UniProt P10646 29-304, limits assumed); test: competitive ELISA
T1 construct: bought; also called hTFPI; human TFPI
T1 sequence (looked up): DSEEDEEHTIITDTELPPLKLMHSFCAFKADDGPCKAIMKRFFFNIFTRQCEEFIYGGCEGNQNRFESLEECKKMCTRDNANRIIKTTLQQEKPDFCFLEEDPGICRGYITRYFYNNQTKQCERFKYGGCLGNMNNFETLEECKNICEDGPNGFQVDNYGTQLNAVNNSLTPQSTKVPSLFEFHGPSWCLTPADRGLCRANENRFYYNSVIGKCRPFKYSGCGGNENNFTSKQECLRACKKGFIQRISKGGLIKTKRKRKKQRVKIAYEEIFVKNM

[2] = target: T2, mouse tissue factor pathway inhibitor (TFPI) (mouse, UniProt O54819 29-289, limits assumed); test: competitive ELISA
T2 construct: bought; also called mTFPI; murine TFPI
T2 sequence (looked up): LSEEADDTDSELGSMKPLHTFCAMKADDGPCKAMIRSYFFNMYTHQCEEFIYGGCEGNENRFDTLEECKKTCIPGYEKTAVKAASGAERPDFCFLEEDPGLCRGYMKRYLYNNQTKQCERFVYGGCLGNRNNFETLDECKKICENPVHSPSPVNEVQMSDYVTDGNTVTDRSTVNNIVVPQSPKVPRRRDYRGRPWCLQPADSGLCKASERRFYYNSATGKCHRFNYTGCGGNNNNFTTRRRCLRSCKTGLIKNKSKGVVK

| Binder | variant/HC_D62R [1] [ratio] | variant/HC_D62R [2] [ratio] | binding result [2] |
| --- | --- | --- | --- |
| 4B7 HC N32D+D62R+Y112D/LC F31I+D33F+N35I+D97T (Fab, V domains shown) VH: QVQLQQSGPGLVKPSQTLSLTCAISGDSVSSDSAAWSWIRQSPGRGLEWLGIIYKRSKWYNRYAVSVKSRITINPDTSKNQFSLQLNSVTPEDTAVYYCARWHSDKHWGFDDWGQGTLVTVSS VL: DIVMTQSPLSLPVTPGEPASISCRSSQSLVISFGITYLNWYLQKPGQSPQLLIYKGSNRASGVPDRFSGSGSGTDFTLKISRVEAEDVGVYYCQQYTSYPLTFGQGTKVEIKR | 23.3 | 11.9 |  |
| 4B7 HC N32D+D62R+Y112D/LC S32R+D33F+N35I+K55L+D97T (Fab, V domains shown) VH: QVQLQQSGPGLVKPSQTLSLTCAISGDSVSSDSAAWSWIRQSPGRGLEWLGIIYKRSKWYNRYAVSVKSRITINPDTSKNQFSLQLNSVTPEDTAVYYCARWHSDKHWGFDDWGQGTLVTVSS VL: DIVMTQSPLSLPVTPGEPASISCRSSQSLVFRFGITYLNWYLQKPGQSPQLLIYLGSNRASGVPDRFSGSGSGTDFTLKISRVEAEDVGVYYCQQYTSYPLTFGQGTKVEIKR | 7.8 |  | no binding |
| 4B7 HC N32D+D62R+Y112D/LC M4L+S32R+D33F+N35I+D97T (Fab, V domains shown) VH: QVQLQQSGPGLVKPSQTLSLTCAISGDSVSSDSAAWSWIRQSPGRGLEWLGIIYKRSKWYNRYAVSVKSRITINPDTSKNQFSLQLNSVTPEDTAVYYCARWHSDKHWGFDDWGQGTLVTVSS VL: DIVLTQSPLSLPVTPGEPASISCRSSQSLVFRFGITYLNWYLQKPGQSPQLLIYKGSNRASGVPDRFSGSGSGTDFTLKISRVEAEDVGVYYCQQYTSYPLTFGQGTKVEIKR | 21.3 | 23.9 |  |
| 4B7 HC N32D+D62R+Y112D/LC S32R+D33F+N35I+L42Q+D97T (Fab, V domains shown) VH: QVQLQQSGPGLVKPSQTLSLTCAISGDSVSSDSAAWSWIRQSPGRGLEWLGIIYKRSKWYNRYAVSVKSRITINPDTSKNQFSLQLNSVTPEDTAVYYCARWHSDKHWGFDDWGQGTLVTVSS VL: DIVMTQSPLSLPVTPGEPASISCRSSQSLVFRFGITYLNWYQQKPGQSPQLLIYKGSNRASGVPDRFSGSGSGTDFTLKISRVEAEDVGVYYCQQYTSYPLTFGQGTKVEIKR | 26.9 | 43 |  |
| 4B7 HC N32D+D62R+Y112D/LC S32R+D33F+N35I+K44R+D97T (Fab, V domains shown) VH: QVQLQQSGPGLVKPSQTLSLTCAISGDSVSSDSAAWSWIRQSPGRGLEWLGIIYKRSKWYNRYAVSVKSRITINPDTSKNQFSLQLNSVTPEDTAVYYCARWHSDKHWGFDDWGQGTLVTVSS VL: DIVMTQSPLSLPVTPGEPASISCRSSQSLVFRFGITYLNWYLQRPGQSPQLLIYKGSNRASGVPDRFSGSGSGTDFTLKISRVEAEDVGVYYCQQYTSYPLTFGQGTKVEIKR | 26 | 40.1 |  |
| 4B7 HC N32D+D62R+Y112D/LC S32R+D33F+N35I+L51R+D97T (Fab, V domains shown) VH: QVQLQQSGPGLVKPSQTLSLTCAISGDSVSSDSAAWSWIRQSPGRGLEWLGIIYKRSKWYNRYAVSVKSRITINPDTSKNQFSLQLNSVTPEDTAVYYCARWHSDKHWGFDDWGQGTLVTVSS VL: DIVMTQSPLSLPVTPGEPASISCRSSQSLVFRFGITYLNWYLQKPGQSPQRLIYKGSNRASGVPDRFSGSGSGTDFTLKISRVEAEDVGVYYCQQYTSYPLTFGQGTKVEIKR | 11.2 | 5.2 |  |
| 4B7 HC N32D+D62R+Y112D/LC F31Y+S32R+D33F+N35I+D97T (Fab, V domains shown) VH: QVQLQQSGPGLVKPSQTLSLTCAISGDSVSSDSAAWSWIRQSPGRGLEWLGIIYKRSKWYNRYAVSVKSRITINPDTSKNQFSLQLNSVTPEDTAVYYCARWHSDKHWGFDDWGQGTLVTVSS VL: DIVMTQSPLSLPVTPGEPASISCRSSQSLVYRFGITYLNWYLQKPGQSPQLLIYKGSNRASGVPDRFSGSGSGTDFTLKISRVEAEDVGVYYCQQYTSYPLTFGQGTKVEIKR | 27.9 | 39.7 |  |
| 4B7 HC N32D+D62R+Y112D/LC S32R+D33F+N35I+T36N+D97T (Fab, V domains shown) VH: QVQLQQSGPGLVKPSQTLSLTCAISGDSVSSDSAAWSWIRQSPGRGLEWLGIIYKRSKWYNRYAVSVKSRITINPDTSKNQFSLQLNSVTPEDTAVYYCARWHSDKHWGFDDWGQGTLVTVSS VL: DIVMTQSPLSLPVTPGEPASISCRSSQSLVFRFGINYLNWYLQKPGQSPQLLIYKGSNRASGVPDRFSGSGSGTDFTLKISRVEAEDVGVYYCQQYTSYPLTFGQGTKVEIKR | 25.2 | 35.4 |  |
| 4B7 HC N32D+D62R+Y112D/LC M4I+S32R+D33F+N35I+D97T (Fab, V domains shown) VH: QVQLQQSGPGLVKPSQTLSLTCAISGDSVSSDSAAWSWIRQSPGRGLEWLGIIYKRSKWYNRYAVSVKSRITINPDTSKNQFSLQLNSVTPEDTAVYYCARWHSDKHWGFDDWGQGTLVTVSS VL: DIVITQSPLSLPVTPGEPASISCRSSQSLVFRFGITYLNWYLQKPGQSPQLLIYKGSNRASGVPDRFSGSGSGTDFTLKISRVEAEDVGVYYCQQYTSYPLTFGQGTKVEIKR | 19.3 | 12 |  |
| 4B7 HC N32D+D62R+Y112D/LC S32R+D33F+N35I+N39D+D97T (Fab, V domains shown) VH: QVQLQQSGPGLVKPSQTLSLTCAISGDSVSSDSAAWSWIRQSPGRGLEWLGIIYKRSKWYNRYAVSVKSRITINPDTSKNQFSLQLNSVTPEDTAVYYCARWHSDKHWGFDDWGQGTLVTVSS VL: DIVMTQSPLSLPVTPGEPASISCRSSQSLVFRFGITYLDWYLQKPGQSPQLLIYKGSNRASGVPDRFSGSGSGTDFTLKISRVEAEDVGVYYCQQYTSYPLTFGQGTKVEIKR | 1.3 |  | no binding |
| 4B7 HC N32D+D62R+Y112D/LC S32R+D33R (Fab, V domains shown) VH: QVQLQQSGPGLVKPSQTLSLTCAISGDSVSSDSAAWSWIRQSPGRGLEWLGIIYKRSKWYNRYAVSVKSRITINPDTSKNQFSLQLNSVTPEDTAVYYCARWHSDKHWGFDDWGQGTLVTVSS VL: DIVMTQSPLSLPVTPGEPASISCRSSQSLVFRRGNTYLNWYLQKPGQSPQLLIYKGSNRASGVPDRFSGSGSGTDFTLKISRVEAEDVGVYYCQQYDSYPLTFGQGTKVEIKR | 14.8 | 7.2 |  |
| 4B7 HC N32D+D62R+Y112D/LC S32R+D33F+N35I+D97T+S98H (Fab, V domains shown) VH: QVQLQQSGPGLVKPSQTLSLTCAISGDSVSSDSAAWSWIRQSPGRGLEWLGIIYKRSKWYNRYAVSVKSRITINPDTSKNQFSLQLNSVTPEDTAVYYCARWHSDKHWGFDDWGQGTLVTVSS VL: DIVMTQSPLSLPVTPGEPASISCRSSQSLVFRFGITYLNWYLQKPGQSPQLLIYKGSNRASGVPDRFSGSGSGTDFTLKISRVEAEDVGVYYCQQYTHYPLTFGQGTKVEIKR | 17.9 | 7.1 |  |
| 4B7 HC N32D+D62R+Y112D/LC F31M+S32R+D33R+N35I (Fab, V domains shown) VH: QVQLQQSGPGLVKPSQTLSLTCAISGDSVSSDSAAWSWIRQSPGRGLEWLGIIYKRSKWYNRYAVSVKSRITINPDTSKNQFSLQLNSVTPEDTAVYYCARWHSDKHWGFDDWGQGTLVTVSS VL: DIVMTQSPLSLPVTPGEPASISCRSSQSLVMRRGITYLNWYLQKPGQSPQLLIYKGSNRASGVPDRFSGSGSGTDFTLKISRVEAEDVGVYYCQQYDSYPLTFGQGTKVEIKR | 15.8 | 11.2 |  |
| 4B7 HC N32D+D62R+Y112D/LC V30L+S32R+D33F+N35I+T36N+D97T (Fab, V domains shown) VH: QVQLQQSGPGLVKPSQTLSLTCAISGDSVSSDSAAWSWIRQSPGRGLEWLGIIYKRSKWYNRYAVSVKSRITINPDTSKNQFSLQLNSVTPEDTAVYYCARWHSDKHWGFDDWGQGTLVTVSS VL: DIVMTQSPLSLPVTPGEPASISCRSSQSLLFRFGINYLNWYLQKPGQSPQLLIYKGSNRASGVPDRFSGSGSGTDFTLKISRVEAEDVGVYYCQQYTSYPLTFGQGTKVEIKR | 23.9 | 28.4 |  |
| 4B7 HC N32D+D62R+Y112D/LC S32R+D33F+N35I+A60D+D97T (Fab, V domains shown) VH: QVQLQQSGPGLVKPSQTLSLTCAISGDSVSSDSAAWSWIRQSPGRGLEWLGIIYKRSKWYNRYAVSVKSRITINPDTSKNQFSLQLNSVTPEDTAVYYCARWHSDKHWGFDDWGQGTLVTVSS VL: DIVMTQSPLSLPVTPGEPASISCRSSQSLVFRFGITYLNWYLQKPGQSPQLLIYKGSNRDSGVPDRFSGSGSGTDFTLKISRVEAEDVGVYYCQQYTSYPLTFGQGTKVEIKR | 19.1 | 14.3 |  |
| 4B7 HC N32D+D62R+Y112D/LC V30L+S32R+D33F+N35I+D97T (Fab, V domains shown) VH: QVQLQQSGPGLVKPSQTLSLTCAISGDSVSSDSAAWSWIRQSPGRGLEWLGIIYKRSKWYNRYAVSVKSRITINPDTSKNQFSLQLNSVTPEDTAVYYCARWHSDKHWGFDDWGQGTLVTVSS VL: DIVMTQSPLSLPVTPGEPASISCRSSQSLLFRFGITYLNWYLQKPGQSPQLLIYKGSNRASGVPDRFSGSGSGTDFTLKISRVEAEDVGVYYCQQYTSYPLTFGQGTKVEIKR | 26.1 | 42.2 |  |
| 4B7 HC N32D+D62R+Y112D/LC S32R+D33F+N35I+G56V+D97T (Fab, V domains shown) VH: QVQLQQSGPGLVKPSQTLSLTCAISGDSVSSDSAAWSWIRQSPGRGLEWLGIIYKRSKWYNRYAVSVKSRITINPDTSKNQFSLQLNSVTPEDTAVYYCARWHSDKHWGFDDWGQGTLVTVSS VL: DIVMTQSPLSLPVTPGEPASISCRSSQSLVFRFGITYLNWYLQKPGQSPQLLIYKVSNRASGVPDRFSGSGSGTDFTLKISRVEAEDVGVYYCQQYTSYPLTFGQGTKVEIKR | 12.1 |  | no binding |
| 4B7 HC N32D+D62R+Y112D/LC S32R+D33F+N35I+Q50R+D97T (Fab, V domains shown) VH: QVQLQQSGPGLVKPSQTLSLTCAISGDSVSSDSAAWSWIRQSPGRGLEWLGIIYKRSKWYNRYAVSVKSRITINPDTSKNQFSLQLNSVTPEDTAVYYCARWHSDKHWGFDDWGQGTLVTVSS VL: DIVMTQSPLSLPVTPGEPASISCRSSQSLVFRFGITYLNWYLQKPGQSPRLLIYKGSNRASGVPDRFSGSGSGTDFTLKISRVEAEDVGVYYCQQYTSYPLTFGQGTKVEIKR | 25.9 | 39.4 |  |
